Measurements: the DeepSol protein solubility set

Experiment: soluble on expression in E. coli; label from the status in PepcDB or PDB records

Soluble on expression in E. coli, soluble:
MVKFTTFLCIIALLLCSTLTHASARLNPTSVYPEENSFKKLEQGEVICEGVGEEECFLIRRTLVAHTDYIYTQNHNP, MGSSHHHHHHSSGLVPRGSHMAVSGPDDYLQHSIVPTMHYQDSLPRLPIPKLEDTMKRYLNAQKPLLDDSQFRRTEALCKNFETGVGKELHAHLLAQDKQNKHTSYISGPWFDMYLTARDSIVLNFNPFMAFNPDPKSEYNDQLTRATNLTVSAVRFLKTLQAGLLEPEVFHLNPSKSDTDAFKRLIRFVPPSLSWYGAYLVNAYPLDMSQYFRLFNSTRIPRPNRDELFTDTKARHLLVLRKGHFYVFDVLDQDGNIVNPLEIQAHLKYILSDSSPVPEFPVAYLTSENRDVWAELRQKLIFDGNEETLKKVDSAVFCLCLDDFPMKDLIHLSHTMLHGDGTNRWFDKSFNLIVAEDGTAAVHFEHSWGDGVAVLRFFNEVFRDSTQTPAITPQSQPAATNSSASVETLSFNLSGALKAGITAAKEKFDTTVKTLSIDSIQFQRGGKEFLKKKQLSPDAVAQLAFQMAFLRQYGQTVATYESCSTAAFKHGRTETIRPASIFTKRCSEAFVRDPSKHSVGELQHMMAECSKYHGQLTKEAAMGQGFDRHLYALRYLATARGLNLPELYLDPAYQQMNHNILSTSTLNSPAVSLGGFAPVVPDGFGIAYAVHDDWIGCNVSSYSGRNAREFLHCVQKCLEDIFDALEGKAIKT, MSLAVEAVIWDFGGVFTTSPFEAFRRYETERGLPKDFIRTVNATDPDANAWARFERAEIDAAAFDGLFRQEALRLGHDVRGADVLPLLYGDLRPSVMAALKTCKAQFKVGCITNNVPTGHGPGMAQSAEKALAVGEIMALFDAVIESSKAGVRKPDPRIYQMMCELLGVAPEACIYLDDLGINCKPAAALGMTAIKVSDERQLLDDLAKATGLAFEGHHHHHH, MAHHHHHHMDRLAGSFLSNGDVANASSLYNSLEKLNPTRYSRMARICRVLLNPQGVPLPHRHLDICEALLDPLVPPEVLLRDSAENVQKSFQRLAVCAHPDKNPSPSANEAFLRLTMMKDKALELLRNGVGRKCDGATEAPPGKAADSNGGKGKPKMQGSGPAVPTVAHRRRPLRPGVPL, MVPAPEAIRQALQERLLARLDHPDPLYRDLLQDYPRRGGKMLRGLLTVYSALAHGAPLEAGLEAATALELFQNWVLVHDDIEDGSEERRGRPALHRLHPMPLALNAGDAMHAEMWGLLAEGLARGLFPPEVLLEFHEVVRRTAYGQHLDLLWTLGGTFDLRPEDYFRMVAHKAAYYTAVAPLRLGALLAGKTPPAAYEEGGLRLGTAFQIVDDVLNLEGGEAYGKERAGDLYEGKRTLILLRFLEEAPPEERARALALLALPREAKPEAEVGWLLERLLASRALAWAKAEAKRLQAEGLALLEAAFQDLPGKEALDHLRGLLAALVERRA, MSLSRGRLKIAVPRLQRVANFDDLDPLVAEPDIDLQWIQPGSPIPADVDVVVLPGSKATRTELDLMRREGWDIDIHAHVRRGGRVVGLCAGFQMLGKVVRDPQGIEGPAGETAGLGLLDIETEISGDKRLIEIDAVDRISGCRVVGYEMHMGRTTGAGLARPWLRLEEGGSERAEGAVSADGRVSGGYLHGIFGGDAFRSAWLAQIGAASSGLDFERRVEETLDALADHCESNLDLDALLALAREGHHHHHH

Soluble on expression in E. coli, not soluble:
MSLDSIVNAYEESDVLDPRTDAERPSVPPVIKPVDLGPVHVETPVVLSPMAGVTNWPFRVICESYGPDGLYVAEMITARALVARNPKALRLCRFAPSEKIRSLQLYGVNPSIVEQAAKIVIDENMADHVDLNFGCPVPKVTRRGGGSALPWKTDLFREIIQRVVKVCDAANVPVTAKIRVGIDHEHETFLEAGHIAQEEGCKAVTLHARTTAEYYGGHSDWSRIGELVSELDIPVFGNGDIWGANDALAMVAETGCAGVAIGRGCQGRPWLFADIKNAFAGSDERVDPTLGDVCRVIERHAELLTEFYDEGHHHHHH, MSALQSLRPALRTAYGLAVRSDIDLPELEPLPGDGAADLTVRRGALPELPGEGGFRTRFAPERAELWWQTVGTFRVEPGLVTASPHAGVSEDLVAYPLLGSVLALALEQLGLFTIHASAVSVGGHGVVMMGDKGAGKSTTATAMIRAGHPLIADDIVAVDEGFRLRPGFPQVKLSPAAAAAFDAPDAVHRPTVPEVPEKCRVLLPERFARGATPLKRIYRLERAPAGTEPAVISVSPIEALPLALRFAYVTRFGAEALNGAAGARHLRQAAAIAASGVLHRVIVPHALDRLPEVVALIERDAGAAALEHHHHHH, MGSDKIHHHHHHMKPEAYPHPVKVVELVETHISWVLLTGSYAYKLKKAVHLDFVDATTLKQRLHFCQEELRLNRRLAPDLYLGVTRILESVDGAKVLDENFELNDPSTKGVVDVAVKMRQFPVSRLLSVYLSDGVLKTESLKRLAFELAGFHLSVKTASADGDFGGFDAVINPVHANLRVLDQLTLTEPLELWLEEHRAWIKSIQPELAFRFKQRLNAGAIRECHGDLHVGNIHLNNDESLEVFDAIDFNPSLRWIDPISEMAFLVMDFEVHDHQGDAMVILNEWLEHTGDYKALDLWPWYSAYRALVRAKVSGLQWQQLCSQSQHHSVDQQHLQRLLKDLNLYIQRAREVQQTKSAGIVLMHGLSGSGKSFLSEQLYQQLPAVRLRSDIERQRAFGRRPLHKLLGFEKGSMTSVGIKPLFQGDPYRPEVTQWLFDQCLPALTQSCLSSGYTTIVDATFLRERERQRMFVLARQQGCPIAIVACECSDFTAQERIATRMGIGTDPSEADLSVRELQKAWIEPLTTDEQDLTVRFTEKTPISIGLERLRVLLNP, MGSDKIHHHHHHMFKPQGLYDYICQQWQEEILPSLCDYIKIPNKSPHFDAKWEEHGYMEQAVNHIANWCKSHAPKGMTLEIVRLKNRTPLLFMEIPGQIDDTVLLYGHLDKQPEMSGWSDDLHPWKPVLKNGLLYGRGGADDGYSAYASLTAIRALEQQGLPYPRCILIIEACEESGSYDLPFYIELLKERIGKPSLVICLDSGAGNYEQLWMTTSLRGNLVGKLTVELINEGVHSGSASGIVADSFRVARQLISRIEDENTGEIKLPQLYCDIPDERIKQAKQCAEILGEQVYSEFPWIDSAKPVIQDKQQLILNRTWRPALTVTGADGFPAIADAGNVMRPVTSLKLSMRLPPLVDPEAASVAMEKALTQNPPYNAKVDFKIQNGGSKGWNAPLLSDWLAKAASEASMTYYDKPAAYMGEGGTIPFMSMLGEQFPKAQFMITGVLGPHSNAHGPNEFLHLDMVKKLTSCVSYVLYSFSQKK, MASANSVIEGDLFKQKGASTFFNEGDINSSEGTIKHIYGLIIGTSNVSSSGTFATVNLTAGNKTGMTEFSLSNVLISDINSKSVPYTVTNATVLIDTAPVIDPICCPKSVDEKSKLAFKISAKDADGDRLTLSASGLPEGASFNRTSGAFAWTPAVGQTGVYTIAFKVSDGYLTDSENVTVTVNKLNNPPVIDFFEPINGSSFSEGERIGISVNATDAEKQALNYSIKIDGVMYSSDPAYIWETDYSSSGNHTIEVSVSDGIDEAKMQHSIYISECHPRYDVNEDGVVNILDITNVSREYETTVSKPYPRYDTNQDGEINILDLTLVGHHFGEKVELEHHHHHH, MSVKQEQCLIKVVSYDSNWPVQFEQEAERIKKALGSNCIEIHHIGSTSVPDLVAKPVIDMIPVVLDISKVDGANAAIRALGYEAKGEYGIPFRRYFQKGDNRLTHHAHVFELGNPEIERHLKFRDWMRMHPKDREAYARLKQELARRYSDDITAYCLGKEDFIATIDKKAGFNGLRMVKALTTREWDKVRHFRQFYFFDKAGLSDPYTWTFEHNAHVHFVLFQGSEITGYAHLQLWSHNRAALRIIVIDELKRNHQYGTRFLALCEKWLKSQGYQSLHVESSPDALKFYRNNGYIDMPFDDPDGYEGDPRDTAVGKIL, MPGIIQIDDMNQSQALIGNNDEHLKAIEESFDVVIHARGQEVAVKGTKIENVEKAESVLINLLKVIDLGNNITIKDVEAAIKMAHNNTIQHLLDLYDEEITKDAFGKTIRAKTMGQRIYVNAMKNNDLVFGIGPAGTGKTFLAVVYAAKQLRKGAVKRIVLTRPAVEAGESLGFLPGDLKEKVDPYLRPLYDGLYTVLGREQTERFIERGIIEIAPLAYMRGRTLEDAFVILDEAQNTTHAQMKMFLTRLGFGSKMVVTGDQTQIDLPKGVKSGLKEAVSRLHNVKGISILKLDQSDVVRHPLVSKIIEHYEGEN
